This is an account of results in the DeepSol protein solubility set.

A short description of this data set: soluble on expression in E. coli; label from the status in PepcDB or PDB records.
As to “GELDPVVTWGTTPGQGIGIDDPIPEPEDLADDKVDTARRAQKHMRVEPGETMEGYDIDVAFLGSCTNARLPDLRRAARIVKGREVADDVRAFVVPGSQRVQRAAEEEGLKDIFEEAGFEWRNAGCSMCLGMNEDQLEGDEACASSSNRNFVGRQGSKDGRTVLMNPRMVAAAAITGEVSDVRDLKEVTLA”, the “soluble on expression in E. coli” value was “not soluble”.

Take “GETQPESAAFTAPSTDNPIRINFNENPLGMSPKAQAAARDAVVKANRYAKNEILMLGNKLAAHHQVEAPSILLTAGSSEGIRAAIEAYASLEAQLVIPELTYGDGEHFAKIAGMKVTKVKMLDNWAFDIEGLKAAVAAYSGPSIVYLVNPNNPTGTITPADVIEPWIASKPANTMFIVDEAYAEFVNDPRFRSISPMITQGAENIILLKTFSKIHAMAGMRVGYAVAHPTVIALMGRYVAGEKINFSGVDAALASMNDSAFITYSKKSNDVSRQILLKALEDLKLPYLPSEGNFVFHQLVVPLKDYQTHMADAGVLIGRAFPPADNWCRISLGTPQEMQWVADTMREFRKKSWI”: the “soluble on expression in E. coli” value is “soluble”.

In the case of “GFNPIIGTGISYKLSKKWSLAAEAFYSRRKVTYTSEVKDQNYIDRNTIIINNNPVTFEVSTTFTGTTKGEFDIHYLEFPLLAQYAIGNNWQIHAGMYYSWAFSKTNKGTATGIIGRTDISNPNTVTDKEYNYSKEVNSRYYGFVAGAQYQLSPAVALDLRATYSCKSLYKEDWEGVPYTLKDLYVQFTVKYFFIRAKD”, the “soluble on expression in E. coli” value is recorded as “not soluble”.

For the sequence “GGGGGGMADLFSTVQEKVAGKDVKIVFPEGLDERILEAVSKLAGNKVLNPIVIGNENEIQAKAKELNLTLGGVKIYDPHTYEGMEDLVQAFVERRKGKATEEQARKALLDENYFGTMLVYKGLADGLVSGAAHSTADTVRPALQIIKTKEGVKKTSGVFIMARGEEQYVFADCAINIAPDSQDLAEIAIESANTAKMFDIEPRVAMLSFSTKGSAKSDETEKVADAVKIAKEKAPELTLDGEFQFDAAFVPSVAEKKAPDSEIKGDANVFVFPSLEAGNIGYKIAQRLGNFEAVGPILQGLNMPVNDLSRGCNAEDVYNLALITAAQAL”, the “soluble on expression in E. coli” value is given as “soluble”.

With “GGGGGGMLNRVFLEGEIESSCWSVKKTGFLVTIKQMRFFGERLFTDYYVIYANGQLAYELEKHTKKYKTISIEGILRTYLERKSEIWKTTIEIVKIFNPKNEIVIDYKEI”, the “soluble on expression in E. coli” value was “soluble”.

For the sequence “GGGGSSGGSTGGGSGSGPVTIEIGSKGEELAFDKTELTVSAGQTVTIRFKNNSAVQQHNWILVKGGEAEAANIANAGLSAGPAANYLPADKSNIIAESPLANGNETVEVTFTAPAAGTYLYICTVPGHYPLMQGKLVVN”, the “soluble on expression in E. coli” value is on record as “soluble”.

“GGKDYPFARFNKTVQVPVYSEQEYQLYLHDDAWTKAETDHLFDLSRRFDLRFVVIHDRYDHQQFKKRSVEDLKERYYHICAKLANVRAVPGTD”: the “soluble on expression in E. coli” value was “soluble”.

Regarding GGRGGFGGRGGFGGRGGFG, the “soluble on expression in E. coli” value is given as “soluble”.

For “GHHDKRFKAFIAHDGIFNMEMQYLETEEKWFANWDMGGAYWEKQNPTAQRTFANSPHLFVEKWDTPILCIHGEKDYRILANQAMAAFDAAVMRGVPAELLIYPDENHWVLKPQNGVLWQRTFFEWLDQWLKPN”, the “soluble on expression in E. coli” value is “not soluble”.

Take “GHMAIQRRIRRVKTVQMTTNSPIHRSGSVLEPGNWQEYDPFLLLMEDIFERGTFDVHPHRGIETVTYVISGELEHFDSKAGHSTLGPGDVQWMTAGRGVVHKEDPASGSTVHSLQLWVNLPSAYKMTEPRYQNLRSKDMPVRKEEGATIRVFSGSSKGVKAPTKNIVPVTMVEMIVEPGTTVVQDLPGHYNGFLYILEGSGVFGADNIEGKAGQALFFSRHNRGEETELNVTAREKLRLLLYAGEPVNEPVVAYGPFVMNTPEQIREAIRDYQEGRFGR”: the “soluble on expression in E. coli” value is on record as “soluble”.

Consider “GHMKQSHFFAHLSRLKLINRWPLMRNVRTENVSEHSLQVAMVAHALAAIKNRKFGGNVNAERIALLAMYHDASEVLTGDLPTPVKYFNSQIAQEYKAIEKIAQQKLVDMVPEELRDIFAPLIDEHAYSDEEKSLVKQADALCAYLKCLEELAAGNNEFLLAKTRLEATLEARRSQEMDYFMEIFVPSFHLSLDEISQDSPL”, for which the “soluble on expression in E. coli” value is listed as “soluble”.

Consider “GHMSDLVTKFESLIISKYPVSFTKEQSAQAAQWESVLKSGQIQPHLDQLNLVLRDNTFIVSTLYPTSTDVHVFEVALPLIKDLVASSKDVKSTYTTYRHILRWIDYMQNLLEVSSTDKLEINHD”, for which the “soluble on expression in E. coli” value was “soluble”.

For the sequence “GHRVWIMYAQPYQVTLQEQQQELAQLEMARSALDSLSELICLQDCQGNLLTTNRAFDQFWEGRREEAITATASRVATRKSERKWTTDTQGRSCLLEVNLSSLVSPS”, the “soluble on expression in E. coli” value is recorded as “not soluble”.

With “GHWNQPWKCLVDHDGVFDNRMMGYATEELWFSEWENGGTPWENPAGYEQFNPVLHVDKWRVPMLVIHGQKDFRIPVEQGLAAFGALQRKGIESKLLYFHDENHWVLNPQNSIQWHDTVNAWLKKYIG”, the “soluble on expression in E. coli” value was “not soluble”.

For “GIDIELQMLGERLLEGKIGSIVAIEPSTGEILCMVSAPTFDPRLMVGRQRGKNHLELARDSWKPLLNRSIMGQFPPGSTFKTTQALTFLQEGIITPQTAYSCYHGFVYAGLRVGCHSHGSPLPLVPAIATSCNGYFCWGLFHMIGAKKKYGSVQTAMNTWRDYMVSMGFGYPLGVDLPGEKRGMIPNAAYYDKNYRGSWNGLTIISISIGQGEVTATPLQIANLGATIANRGYYITPHVVKEVEDEPLDTLYTTKRYTKVSREHYQTVVEGMRSAVLGGTCRNANIPGIEVCGKTGTAQNRGKDHSAFMGFAPMNDPKIAVVVYVENGGWGATYGVPIGALIMEKYLKGELSPESEAKAAEIQNRRIDYGIHER”, the “soluble on expression in E. coli” value is “not soluble”.

With “GIDPFTFENATSDAINQDMMLYIERIAKIIQKLPKRVHINVRGFTDDTPLVKTRFKSHYELAANRAYRVMKVLIQYGVNPNQLSFSSYGSTNPIAPNDSLENRMKNNRVEIFFSTDANDLSKIHSILDNEFNPHKQQE”, the “soluble on expression in E. coli” value is given as “soluble”.

Take “GIEIVNRKAVWYLTSEIKETETGIEVSAGELHKGDEEVFPVEEVSFDLTPDDTYPVEYMLYLHMNVQTKKVSWSLCKAYLDGEGYCDYQGNERLIMYPVSVTVFPNGTREGTIFLYEKEDREPDRKPPVIVEPQPVGEIGTPDIDE”: the “soluble on expression in E. coli” value was “soluble”.

For “GILDPEERYEHQLRQLNDMGFFDFDRNVAALRRSGGSVQGALDSLLNGDV”, the “soluble on expression in E. coli” value was “soluble”.

For the sequence “GLECDGKVNICCKKQFFVSFKDIGWNDWIIAPSGYHANYCEGECPSHIAGTSGSSLSFHSTVINHYRMRGHSPFANLKSCCVPTKLRPMSMLYYDDGQNIIKKDIQNMIVEECGCS”, the “soluble on expression in E. coli” value is listed as “soluble”.

Consider “GLEIHVQIDTKSKLFCNCSTNYLDAEPNTNVCPVCLGLPGAKPLPPNKKAVEVAIMVAKMLGCKIVVDEDIYFQRKHYDYPDLPSGYQRTSTPIGVDGEFMGIGIHEVHLEEDPGQYNPSFGIVDYNRSGTPLIEIVTKPDIKSPEEAREFLKQLMTLFRYLGCLRGEGTMRADVNISIEYMGVQGNRVEVKNVNSIKGVYKVLKYELIRQKNIIKR”, for which the “soluble on expression in E. coli” value is listed as “not soluble”.

For the sequence “GMDTNGVLYAANMTNALAKEIPESKWDIQLIPELGTLRKLFIHIVRVRDVYRDGLKTGSIKFPGRLASDEHRLLDELERSMEELVFEFKQTTFNSIKMGENYLSIMELLGTVIQHEGIHQGQYYVALKQSGINLPKQWVQDWHM”, the “soluble on expression in E. coli” value is recorded as “soluble”.

As to “GMEGLVMNTRRALFADWRVREAMLLAFDFDLINRTLTGGAEPRIASYFSNSALGMEAGAPATGRERALLEPFAADLLPGTLDGYALPATHGASNRGNLRKAARLLSEAGWRIEDGMLEGPGGTPFAFEILLPQGADAMIAASIIYRQALTRLGISARITTVDPAQFKQRVDNQDFDMTSFLRSLTLSPGNEQLLYWSAEDKDLPGSRNLMGMESPAAEAVIRHMLATDDAEEFQASVRALDRVLTAGRYVIPMWYSR”, the “soluble on expression in E. coli” value is on record as “not soluble”.

Regarding “GMELKDIMHILEDMKVGVFATLDEYGNPHARHAHITAANEEGIFFMTSPETHFYDQLMGDQRVAMTAISEEGYLIQVVRVEGTARPVENDYLKTVFADNPYYQHIYKDESSDTMQVFQIYAGHGFYHSLTQGHKYIFSIGQGEHSEVRAL”, the “soluble on expression in E. coli” value was “soluble”.
